Test results as given in doi:10.1101/2022.06.09.495492 (2022).

Tests used:
His-△237 [1] = biological target: His-△237 (T. vaginalis); assay: ELISA; G-actin
His-△237 [2] = biological target: His-△237 (T. vaginalis); assay: ELISA; F-actin

B1: GST-Tvactin (natural protein)
chain: not shown
- Kd (His-△237 [1]): 9.01 µM
- Kd (His-△237 [2]): 10.3 µM
